Assay in all cases: ELISA, toxin domain coated on plate
The target in assay [1] is BoNT/A light-chain heavy-chain N-terminus (LCHN) domain (UniProt P0DPI0 1-870).
The target in assay [2] is BoNT/A heavy-chain N-terminus (HCN) domain (UniProt P0DPI0 871-1092).
In assay [3] the target is BoNT/A heavy-chain C-terminus (HCC) domain (UniProt P0DPI0 1093-1296).
Chain of BoNT/A heavy-chain C-terminus (HCC) domain (P0DPI0 1093-1296 limits assumed): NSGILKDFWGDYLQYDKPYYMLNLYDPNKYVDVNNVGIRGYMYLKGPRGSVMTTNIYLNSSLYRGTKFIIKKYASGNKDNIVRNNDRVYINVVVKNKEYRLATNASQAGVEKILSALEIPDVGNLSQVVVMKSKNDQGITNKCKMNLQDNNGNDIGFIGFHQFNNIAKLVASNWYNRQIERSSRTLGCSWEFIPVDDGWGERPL

Chain of BoNT/A light-chain heavy-chain N-terminus (LCHN) domain (P0DPI0 1-870 limits assumed): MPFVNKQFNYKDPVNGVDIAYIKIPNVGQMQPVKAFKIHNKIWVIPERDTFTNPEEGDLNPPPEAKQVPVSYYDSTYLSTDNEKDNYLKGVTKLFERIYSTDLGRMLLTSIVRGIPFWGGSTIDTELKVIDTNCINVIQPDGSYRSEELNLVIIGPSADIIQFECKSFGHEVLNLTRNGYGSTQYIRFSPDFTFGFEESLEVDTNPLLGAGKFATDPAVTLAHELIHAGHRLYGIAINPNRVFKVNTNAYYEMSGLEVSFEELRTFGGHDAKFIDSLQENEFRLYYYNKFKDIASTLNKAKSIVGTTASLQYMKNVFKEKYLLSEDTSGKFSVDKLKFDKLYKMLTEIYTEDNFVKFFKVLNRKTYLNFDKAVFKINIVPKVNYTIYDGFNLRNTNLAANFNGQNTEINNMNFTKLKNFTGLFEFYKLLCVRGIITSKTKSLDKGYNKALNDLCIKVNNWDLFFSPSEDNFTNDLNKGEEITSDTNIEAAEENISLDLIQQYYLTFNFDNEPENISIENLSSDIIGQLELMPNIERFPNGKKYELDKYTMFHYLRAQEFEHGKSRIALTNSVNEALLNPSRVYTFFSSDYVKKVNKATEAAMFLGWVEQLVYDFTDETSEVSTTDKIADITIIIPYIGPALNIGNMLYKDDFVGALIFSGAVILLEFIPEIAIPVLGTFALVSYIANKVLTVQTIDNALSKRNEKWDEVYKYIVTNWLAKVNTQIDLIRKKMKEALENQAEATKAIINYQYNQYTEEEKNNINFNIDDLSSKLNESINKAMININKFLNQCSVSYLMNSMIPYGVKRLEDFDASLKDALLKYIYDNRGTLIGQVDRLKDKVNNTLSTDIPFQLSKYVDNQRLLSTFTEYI
Chain of BoNT/A heavy-chain N-terminus (HCN) domain (P0DPI0 871-1092 limits assumed): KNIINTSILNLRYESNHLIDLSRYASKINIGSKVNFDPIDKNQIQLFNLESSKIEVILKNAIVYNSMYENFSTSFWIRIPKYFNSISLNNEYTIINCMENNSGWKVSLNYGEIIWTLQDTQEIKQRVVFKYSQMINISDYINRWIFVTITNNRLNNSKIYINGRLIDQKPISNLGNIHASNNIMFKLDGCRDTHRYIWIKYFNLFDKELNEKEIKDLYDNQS

B1: ABT02 (antibody, V domains shown)
VH: QVQLVQSGGGVVHPGRSLKLSCAGSGFTFSDYDMHWVRQAPGKGLEWVAVMWFDGTEKYSAESVKGRFTISRDNSKNTLFLQMNSLRADDTAVYYCAREPDWLLWGDRGALDVWGQGTTVTVSS
VL: DIVMTQSPSTLSASVGDRVTITCWASQSISSRLAWYQQKPGKAPKLLMYEATSLGSGVPSRFSGSGSGTEFTLTISSLQPDDFAAYYCQHYDTYPYTFGQGTKLEIK
With B1, the binding result in assay [1] and in assay [2] was “no binding” throughout.

B2: ABT01 (antibody, V domains shown)
VH: QVQLQQSGGGLVQPGGSLRLSCAASGFTFKYDYMYWIRQAPGKGLEWVATISDGGSYTYYSDSVEGRFTTSRDNSKNTLYLQMNSLRAEDTAIYYCSRYRYDDAMDYWGQGTLVTVSS
VL: EIVLTQSPATLSLSPGERATISCRASESVDSYGHSFMQWYQQKPGQAPRLLIYRASNLEPGIPARFSGSGSGTDFTLTISSLEPEDFAVYYCQQGNEVPFTFGQGTKVEIK
As to B2, the binding result in assay [3] and in assay [1] was “no binding” throughout.

B3: ABT03 (antibody, V domains shown)
VH: QVQLQQSGGGLVQPGGSLRLSCAASGFTFSNYAMTWVRQAPGKGLEWVSSISVGGSDTYYADSVKGRFTVSRDNSKNTLLLQMNSLRAEDTAVYYCAKVRTKYCSSLSCFAGFDSWGQGTRVTVSS
VL: DVVMTQSPSSLSASVGDRVTITCRASQSISSYLHWYQQKPGKAPTLLISDASSSQSGVPSRFSGSRFGTDFTLTISSLQPEDFATYYCQQSYSTRALTFGGGTKVEIK
On to B3, for which the binding result in assay [3] and in assay [2] was “no binding” each time.

For the origin of these results see patent publication US20120121581A1 (XOMA TECHNOLOGY, published 2012).
